Experiment: soluble on expression in E. coli; label from the status in PepcDB or PDB records

Sequence	soluble on expression in E. coli
MRPIEEFVYVGNQVIVPDQASLMRCYYPIIGGEGYALYQYFVAFYDNGNHRHKFATILNHLNFGMQPLQESLAVLTAVDLLAFYHSPQGIYVVELKSPLSIEQFLKHAVYSSLLEQKIGEPAVDALKPTSLHGLQDLSKRFSDVFTDERLAQKSVSEIKPKNSFDLISFRNRMQADGLVFTDEKTDVPEIYKLSETYDMNWYDTYLLSKKTAVNHRIIVKRMQVQLEQAQAQKLGGDSALTETEKKILKAVKSGKPVDYLQSAKGPGGTVTNSEKKILTDLAQRGFMDEVINLMVAYSLGRTRSTNVNREYISKVANDFDFKKIVTAEQGLLALRSGYDKKSQRAKDDSKKKTNVPSWSDPDYDNQTNQADQAKLDEIRRRALAKLEKGKE	soluble
MKTRDRILECSLLLFNEQGEPNVSTLEIANELGISPGNLYYHFHGKEPLVMALFERFQAELAPLLDPPEEVRLGAEDYWLFLHLIVERLAHYRFLFQDLSNLTGRLPRLARGIRTWLGALKRTLATLLARLKADRQLRSDAPALGQLVEQITLTLLFSLDYQRVLGSKGEVRTVVYQIMMLVAPHLRSEAQRSAESLAQRYLGPE	not soluble
DGTADKTKGEVSNDKVSTDEKHVVSLDPNDQSKGKGVVIDNVANGDISATSTDAINGSQLYAVAKGVTNLAGQVNNLEGKVNKVGKRADAGTASALAASQLPQATMPGKSMVAIAGSSYQGQNGLAIGVSRISDNGKVIIRLSGTTNSQGKTGVAAGVGYQW	soluble
MFSWQEFTERDVSLFTENVIRSLINTKYNVICHIEDYTPPQFDSFLQLSACYNIGEKTEDEVINSDGIRWSKKKDSLGSEMKPRKNTISVDGRTFRRINCSSPPPATNLFKKYMAIEEATKLCWILFLGSSHDVIDYTSLKVARKKLSKEEALMIRKMLEGRTVLMVYQMLGGKYSKRQIKDQQRNVLTTVKLNRGPRPVTNPADLCDLSRMFSHAYHSSHRNSIRFIYFNKSMLGLFLKSCPTYTEITTYRNRMDGIENWRTADLNKHLADCKVYTCGGIDTRVASIIELDTTFGLSNGYISVTTGFIPVFRTRQHTKSSPSKLRHVVLGFMFHSSKHKSHFEDFSGRLNEILQELDPKKIKKIQL	not soluble
MQIITTTFIQKVILGSHQLHEQLSIVEARMIESAIVSMLTESFCENEQTLKYLARLLSPMSYMDVINARRGKKICGYPLCYKSAAENSSDGFFIHSMYCNNYHSKCSLYLMRQLSQTPLHERRGVHLTSYINLEFDDMYSVSLLEELVGSEVPIDTVKSLITSFKDLEFDDTYKNEPLPLDVYFGQLTTDEETCIE	not soluble
MKTTLIKVIAASVTALFLSMQVYASGHTAHVDEAVKHAEEAVAHGKEGHTDQLLEHAKESLTHAKAASEAGGNTHVGHGIKHLEDAIKHGEEGHVGVATKHAQEAIEHLRASEHKSH	not soluble
MGHHHHHHSHMGRCYNNIVIDASIEAVWQQIGNFHDMSWAKGVITSLVKVGPASGTEVGAKRILNDAIHETLVSLDSSNYTFTYSIDDGPDAIAKSAVDNYLGMVNLSESSTGVLVEWSSSFTSDNEKAVTEFCDP	not soluble
MQLKRKNSVFIDPRIQEVAGPCEPSDNGNNEEEDKIISIRATASSASITKESVPEAPPTHFIPVVVTVEPDAWEKFRDIIQVNRNIVIVKVGRWLMSSFMPGDQISLVNGTAIWNSDDLENQVRGPKKETKTEVTVIRVWNLKCLTDIQLDKLLVPPEEQLHYFSVKVYSSKGTIGLKLCLDKKRVLVELIRAKTPVNSALLVGDQILGINDELLTAKSKRALRKQVAEVMKKSIKKQGFAEIIACRQVIARSSPAPSLEAELSEKFANYAVGVEKGTRIEKKDSSETNSLPLHSDALEIALRELACLKQWIVESSTEVPPCDKGPTLMIDPPTAPGSAEGCPPPLVKAKSTTNAIERSVYFPLSTTAAVAILVSTPKKRSIFRQQDRNSAINFAEQPDHEKITSDIPEEDDLKKCEPMSGIAAYIKKKFN	not soluble
MGSDKIHHHHHHMLMGSKDKVISILKEKGPISQTELSKLSGLSKSRLSEVLSELEKQGIVKRRKVLGKNLEVSLSQDRFLRLGIIRAAEYPFIIPFIKNLENRGYSVTVKIYENGIDLTRDLVEAKLDLGLSPIITQIIFSTIYRNIRIIGGGAKGGGGIIGKTCNRIASTVMSSMEIWAFSEFKNIEIIPSYSSYEMLDFLEKGIVDGIAIWEPFLSILERKGHKVHRFTPLHCCTLAVRETMDWERIKNIYEESFSWFKSSIDRWVSSYSNLLNIDYNILKEASKNYEFDYYLDLKEFKNSLKNTGIFIPI	not soluble
MGSDKIHHHHHHQTQVIAHRGFWKTEGSAQNSIAALLKADSIGCYGSEFDVWLAADDQLVVNHDPTFKGKRMENSPSTALTAIKLDNGESLPTLAKYLKAAQPLHTRLILELKAHSTPLRETKAIEKIVALVKDMGLEERMEYITFSLHATKEFIRLAPEGTPVYYLDGNLSPKELKELGCAGPDYHYTVFRKHPEWIQECHDLGMKVNAWTVNKTDDMKWLIDRKVDFITTNEPVQLKNLLKK	not soluble
MDDRLYAPATERNRDAILAVLKDELRSPGTVLEIASGTGEHGAYFAPQLPDYFWQPSDPNEESRRSIAAWRSHVNAPNLGEAIAIDVTRSDWVESVPEFPQPVVAIAAINLIHISPWEATLGLFAGAKQLLSVDGLIYLYGAYKRGGQHTAPSNEAFDASLQARNPAWGARNLEDVTAVAEAEQFRLDRIVEMPSNNLSVCFRAIALEHHHHHH	soluble
GHMYAIAEDTLPARVLKELLLYRRRYPEHRQSASEADEIRRIEQVQLPRIAAFIEAGEPIEFVLPAFPAKSPNPGKVLDSRPDMAERLSLSFLNHLCQRIQLFYAPGAKITVCSDGRVFGDLVRIGDAHISAYQDALRLMIEEIGATHIGVFNLEDVRAFEAQRDNHEQLRQLLIGGYAEPLESIRETLLASEEGLLLYRAITRFLYEDGLTPDYQGSKTALQRDAKERAYGVIQRSWAWGALLADQFPRAIRLSIHPQPADSLKFGIHMMPTRDDWLTPWHGVAVNTEDRFVLMKRSEVLELGGELVQINGQPSHYRLPARAARRAAVA	soluble
MKIEEVRFGLVKIDGKEFDHDIVIYPSGRIERRMKEISKKKHGTSHKLDPEELEKYLVEDFDVLLVGTGIYGMLSLLPESKKLVEDKEVIEKPTKEALKLLEELWGKKRILAIIHVTC	soluble
MMSIFSVQTGSLVGTVHRYVKQPRQSWAYPIKQKSQTGTDNTKSALTLEKFTKPLTRKFSHDTICRKAPFVGVELQKPSATLTIMGKVHRQRQE	not soluble
MDGNDINIQKNEFSRDQSALLMMDQHSDHKNHESAIGEPGMSYTASQPALSSTEHQTPLVSEASVAAPQNHLNGNSHESVSEMDRNSVDFAIESVLMKARAYNKMGAPKDPRRKQHNPKSEPKIEPHVTDSSDNQAAMSNKMEAEAPKMESNQNYVSNGSEPPFRFVSISNFDEMKTKKKEVQEELKLEVDSDSEEDDVPEQKTPKESDRCGGCGKFTHEDDLIALEEEKKKEKEKPLMSKKKSHHHKKNDFQWIGCDSCQTWYHFLCSGLEQFEYYLYEKFFCPKCVPHTGHSIRYKVVAPHRYRWYSPNEKHLGIEVGSKTWIEDFITRENTVPSPTDDEVCIVEDGYEFRREFEKLGGADNWGKVFMVKDMDGLNMTMPKPGFDLEDVVKIMGSDYEVDTIDVYNQSTYSMKLDTFRKLFRDTKNRPLLYNFLSLEFSDNNEMKEIAKPPRFVQEISMVNRLWPDVSGAEYIKLLQREEYLPEDQRPKVEQFCLAGMAGSYTDFHVDFGGSSVYYHILKGEKIFYIAAPTEQNFAAYQAHETSPDTTTWFGDIANGAVKRVVIKEGQTLLIPAGWIHAVLTPVDSLVFGGNFLHLGNLEMQMRVYHLENAIRKEIRSEEKFYFPNFELLHWMYMRNVLLEKITEANQEGSDMREQEKNIWTASQIMKAEMERWMDRELRLGPEKNAILPTDDKNKIMISVRKQIEIQTKIQNAKNKPMGLKQKRKSRESAERDDEDYCPSSSTAYKKKYTKKAKKDNDDAPKVKKAKKEEVPEEKVPVPEAAGPSEVTAPLTIKIGMGPTEDQKGVVQIFNNQCTSSGRKVKLNQNVADYCGSHLEARVEEIPEKATKSFRELDNELERCEAVHSGEKIKKVKEPKPPKQPKEKKEKPPPKKKEMSSRDRLMKKLKM	not soluble
MGSDKIHHHHHHMSKKQEEIAIKEQRLLSMMEENELEGICLSRAANFAWLTAGSNNRVVWGQETGAAALVIVEGRKFLVAPQNEIERLMLEQVADLGFEPWTYEWYEDRQQAIARLVGNKKIGSDIPLGNWPVIEAELKRLRFSLTDHEVERAEKLAAICSDDLAAVCQAIVPGWSEWNIQVELSNRLLKQGVRASVLLVGADDRTRFKHPLPTLNPVCNYVIIGLVGEQCGLHMALTRSIYFGRVPEALRQNYNCCLAVERTYWENSVVDADSQKVFQQGINAYADLGHPEEWKRHHQGGAIGYAPREFRAGEGRREVMQDRQMLAWNPTVENTKCEDTCLVTPTGLKSMTTVPSWWPTTTVKAGNINFLRPLILEK	not soluble
FEKMKKEVEEILYNLKKEGGKYHCILAFSGGKDSVLALKLLKEKFKLNPLCVMVDNKYMAKEAIENALNVTKHYQVDLMILNRDYTDLFEDAIKRGESPCRRCSRLILREVWRVTKLLGLKYIITGHELP	not soluble
MDTTEFDEIRPYNDEELPQIFEELIADPAFQKAATDAIPNVPFELLAQKIRACKSKLDFQETFCYGILWKIAADHTDGLTLDHTAVPDKSKAYTYVSNHRDIILDSGFLSILLIDQGMDTVEIAIGDNLLVYPWIKKLVRVNKSFIVQRALTMRQMLESSARMSRYMHYTINEKNQSIWIAQREGRAKDSNDRTQDSVLKMLAMGGEGDLIDRLMEMNIAPLAISYEYDPCDFLKAQEFQLKRDIEGYKKTTQDDLISMQTGLFGYKGKVHFQTAPCINDRLAQLDRSLPKQELFSSISACIDQRIHSNYRIYSGNYVAYDLLKGTSEFAGHYTPEEKQRFVTYIEQQLGKIKIPNKDEDFLRGKLLLMYANPLVNYLAACQ	not soluble
MNIKRITTEADLHEALKIRRGVFIEEQHVSEADEFDEFDTLQEQCQHILVYHENQPVGTGRARIVGHTAKLERICILKPYRKYGLGKIIVSGLEEIMKEKGLTSYKLHGQTQAAGFYQKLGYQISSQEFMEDGIPHVLMTKEISRNITLEHHHHHH	not soluble
MQARYRDWGIFKYWFRAVEKNAPWVHKIFIITDHQNPKFLNKHSSKIVFVNHEDFIPNEYLPTFNSDAIEIGIQNIPGLSEHFVFFNDDMFINKPVKPIDFFDGNIPKDSGVMGPQFPISNSITHITVNNMEIINKYFLKKKVLRKYFFKFFNWRYGKDNIRTATALPWQVFIGFYDMHIPISFLKSTFDNVWSEVGNLLSQNYQHRFRSQLDYSVWLMRYFQLASGNFFPRRTRFGKYYNLGEQTEEIINDIKTGKHALIVLNDQESINDYPYEKKLVNEVFERRYSRLEHHHHHH	soluble
MGSDKIHHHHHHMKYREILEAAVRAPSGENCQPWRFVMEGDVIRIFNIPDQDTSLFNLHQRASYVAHGALLENLSIAAPAFGYAPDISLFPDSHVPNLVAAVRMTEGPSFDDSLYPYIPKRCTNRKRYNGGALSAAESQTLLSVAERVPGGKVALTGSVQDKAEVAEVNALNDRLVFENEHLHAFLFEHVRWSDAEARERGDGLDIKTLELAPPDSLAFPLLKSWPLVDFLKNFGVPRIIAGSARKLALSAAAIGVVSVPGKGDKDCIAAGRLIERVWLEATKLGLSFQLMTGITLLMRRVLDGETENISSQHGELIKKAYGTLANRFGVEDGSLFIMFRVGRCGPPSVYSMRYPIDKVIDAP	not soluble
MSIAQEFEKANTHYSSNFTKRDLPLPPARKVAVVICMDARIDPAASLGLTEGDAHVIRNAGGRASDALRSVIISQRLLGTREIVVVHHTDCGMLTFSDNDLRGIVAKETGHNVDHFAFLPFGDLEKSVKDDVEFFKRNPLVLDVPVTGYIYDVKSGAINKVDS	soluble
KQKKMQAMIVTSKPYCVIKRIHRDLHRGVTCINDAEGTYNHEKKAVLITILTREEFSDFKYLMLKADPKAFVSVAENVHIIGRFVDDD	not soluble

Source: the DeepSol protein solubility set
